The values that follow come from patent US20160326219A1, “OPTICALLY ACTIVATED RECEPTORS” (IST AUSTRIA (INSTITUTE OF SCIENCE AND TECHNOLOGY AUSTRIA), priority 2013, published 2016).

The test system of test [1] is M38K cells. The test can be described thus: All optical evaluation of pharmacological compounds / cell morphology, M38K cells stably expressing Opto-mFGFR1. To be noted: M38K cells; blue light (Opto-mFGFR1) or added growth factor. Type of test: cell-based, human. The text has this:
(§1) M38K and SPC212, two malignant pleural mesothelioma cell lines, were maintained in RPMI1640 supplemented with 10% FBS. Telomerase-immortalized microvascular hBE cells were maintained in Clonetics EGM2 MV endothelial growth medium (Lonza, Wakersville, Md.) supplemented with 5% FBS. For retrovirus generation, Opto-mFGFR1 or mCherry as control was subcloned into pQCXIP (Clontech, Mountain View, Calif.) using EcoRI and NotI restriction enzymes. Viral particles were generated in HEK293 cells by co-transfection with the helper plasmids pVSV-G and p-gag-pol-gpt. Supernatants were used to transduce M38K, SPC212 or hBE cells grown to 50% confluency in 6-well plates. Cells were selected with 0.8 μg/ml puromycin for 10 d and transgene expression was verified by immunoblotting.
10^5 M38K cells were seeded in each well of 6-well plates. After 24 h, cells were stimulated for 1 h or kept in the dark. FGF2 (Sigma) or PD166866 (Pfizer Global Research and Development, New London, Conn.) were added as indicated. After additional 24 h, cells were photographed on the Nikon Ti300 microscope. For quantification of cell morphology, all cell perimeters in randomly selected sections of phase contrast images were traced and aspect ratios (defined as length of major axis divided by length of minor axis of a fitted ellipse) calculated with ImageJ software (National Institute of Health). Greater than 50 individual values contributed to each average.
For M38K cells, cell morphology was evaluated as described above but followed by automated image analysis. Phase contrast images (typically three images from two wells) were automatically analyzed. Images were converted to greyscale, resized and divided into segments for local threshold correction (threshold was defined as most probably intensity multiplied by a constant factor of 0.85; Igor Pro, Wavemetrics, Lake Oswego, Oreg.). Cells were identified and measured in FIJI/ImageJ (Max Planck Society/National Institutes of Health; size limit: 40 to 600 pixel̂2, circularity limit: 0.01 to 1.00). Occasionally, outliers were removed manually. Typically 200 to 1800 individual values contributed to the averages of FIG. 9. For HEK293 cells, MAPK pathway activation was measured using luciferase as described above.

Test [2] concerns hBE cells. The test can be described thus: In vitro angiogenesis (sprouting) assay (hBE cells). It is filed as cell-based. To be noted: hBE cell spheroids, FIGS. 7b and c. On the procedure:
For spheroid generation, hBE cells were suspended as hanging drops (450 cells in a 25 μl drop) in M199 medium (Sigma) supplemented with 10% FBS, L-glutamine, 2.2 g/I NaHCO3 and 20% methylcellulose (Sigma) over night in a standard tissue culture incubator. The following day, spheroids were washed in PBS containing 10% FBS, centrifuged, resuspended in Methocel/20% FBS, mixed (1:1) with neutralized rat-tail collagen and seeded into non-adhesive 24-well plates (Greiner Bio-one, Kremsmünster, Austria). After solidification of the collagen, VEGFA (30 ng/ml) or PD166866 (10 μM) were added. Plates were stimulated with light for 5 min every 20 min for 10 h or kept in the dark. After stimulation, 1 ml of 8% paraformaldehyde was added to each well and spheroids were photographed on the Nikon microscope. Cumulative sprout lengths per sphere from at least 8 spheroids per group were measured (ImageJ).

The test system of test [3] is mFGFR1-related signaling pathways. Kind of test: Detection of additional signaling pathways, Cignal Reporter assays (HEK293 cells). The following applies: ~3 μW/mm^2, FIG. 3. It is filed as cell-based, human. As for the experimental part:
Activation of additional mFGFR1-related signaling pathways was assayed with Cignal Reporter assays (Qiagen, Hilden, Germany) consisting of mixtures of inducible pathway focused transcription factor-responsive firefly luciferase constructs and a constitutively expressing Renilla luciferase construct. Cells were transfected with 100.3 ng total DNA per well (receptor and reporter at ratio of 1:300) using Lipofectamine 2000 and thereafter treated as described above for detection of MAPK signaling. Cells were processed with the Dual-Glo® Luciferase Assay System (Promega) and signals detected with the microplate reader.
A general note: A reporter such as luciferase makes a cellular process visible.

The test system of test [4] is M38K cells. Kind of test: Cell cycle distribution by flow cytometry (M38K cells). Type of test: cell-based, human. As for the experimental part: Cell cycle distribution was analyzed by flow cytometry. 5×10^5 M38K cells were seeded in 25 cm^2 tissue culture flasks. After 24 h, cells were stimulated for 1 h or kept in the dark. After additional 24 h, cells were fixed in ethanol (70%), treated with 50 μg/ml RNAse A and 50 μg/ml propidium iodide (PI). Flow cytometry was performed on a FACSCalibur (BD Biosciences, Schwechat, Austria) and cell cycle distribution calculated with ModFit LT software (Verity Software House, Topsham, Me.).
For orientation: A flow cytometer gives signals particle by particle.

In test [5] the test system is blood endothelial cells. The test can be described thus: Stimulation and Western blot (hBE cells). Type of test: cell-based. To be noted: ~3 μW/mm^2.
Source text: as §1
For immunoblotting, 5×10^5 cells were seeded in each well of 6-well plates. After 24 h, medium was replaced with reduced serum medium (M38K, SPC212). After additional 20 h, cells were transferred to the stimulation incubator and illuminated for 1, 5 or 15 min or shielded from light. Cells were then either immediately or after additional 5, 15 or 30 min in the dark washed and lysed in 50 μl lysis buffer per well on ice. Lysates were sonicated and centrifuged (12000 g, 5 min, 4° C.). […] Chemiluminescence was developed with WesternC reagent (Biorad, Hercules, Calif.) and signals recorded on X-ray film (GE Healthcare).
For orientation: Immunoblotting shows a protein as a band on a membrane.

B1: Opto-mFGFR1: chimeric receptor of mFGFR1 intracellular domain and VfAU1-LOV, SEQ ID NO: 58 (protein)
chain: MGSSKSKPKDPSQRLDMKSGTKKSDFHSQMAVHKLAKSIPLRRQVTVSADSSASMNSGVLLVRPSRLSSSGTPMLAGVSEYELPEDPRWELPRDRLVLGKPLGEGCFGQVVLAEAIGLDKDKPNRVTKVAVKMLKSDATEKDLSDLISEMEMMKMIGKHKNIINLLGACTQDGPLYVIVEYASKGNLREYLQARRPPGLEYCYNPSHNPEEQLSSKDLVSCAYQVARGMEYLASKKCIHRDLAARNVLVTEDNVMKIADFGLARDIHHIDYYKKTTNGRLPVKWMAPEALFDRIYTHQSDVWSFGVLLWEIFTLGGSPYPGVPVEELFKLLKEGHRMDKPSNCTNELYMMMRDCWHAVPSQRPTFKQLVEDLDRIVALTSNQEYLDLSIPLDQYSPSFPDTRSSTCSSGEDSVFSHEPLPEEPCLPRHPTQLANSGLKRRVETGPDYSLVKALQMAQQNFVITDASLPDNPIVYASRGFLTLTGYSLDQILGRNCRFLQGPETDPRAVDKIRNAITKGVDTSVCLLNYRQDGTTFWNLFFVAGLRDSKGNIVNYVGVQSKVSEDYAKLLVNEQNIEYKGVRTSNMLRRKTGGSGVDYPYDVPDYALD
modifications: mFGFR1-VfAU1-LOV
B1: in test [1], the Cell morphology response result is “EMT-like morphological alterations”. The “Morphological alterations (sprouting) upon blue light illumination” value in test [2] is “induced morphological alterations”. In addition, the “Activation of additional pathways linked to mFGFR1 in response to blue light” value in test [3] was “activates”. Further, the “Cell cycle distribution upon light stimulation” value in test [4] is “a shift of cell cycle distribution towards the S-phase”. The “Phosphorylation upon blue light stimulation” value in test [5] was “rapid phosphorylation of Opto-mFGFR1 and ERK1/2”.
